From a protein production outcome set (Wang et al. 2014)

Assay: label from the status in PepcDB records

| Sequence | protein production |
| --- | --- |
| MKIGIIGAGFVARAIAKLALQNGHQVMLSNSRDPQSLFSLRPMIGCDIGTATQAALFGDIIVIAVPFTAIDKLPEQALQGKSVIDAVNYYTERDGKVAALDTRSTTTSELLAGYLPGAKITKAFNAITMTQLERDGLPAGSAHRRALPLAGDHEQEKTIVAELYDAFGFDVVDAGKLSEGWRFERNMPSYCVRMTKAELTTALALSSRLEHHHHHH | not failed |
| GKFGFNDAVGHPKTLKGAAYGRFANSFNLANNKISMDPDGNWMNKIYNEAELAEMDGLNYNWLDEAWSGAFTMNHSVNVSGGSEKATYFAGASYYTQGANLGKQDYNRWNFRAGVDIKLTSDLKFSATIAGNQQETTSSFTKGLSNLNGYGGTKPGESGDYLVLAHMPNYLPWEITLDDGNTYYTSPLLNSYSSAGNATSGNKMSTWNYFAMENNDGSYSTNDNFSYDANFSVTYAVPFIKGLSFKGSYALKRSASDSEQAFMPFTLAYLKASDALTPGNRFYSDHPSVSDYQLKEFTGSTRVVYSDQMAKNEQLNFYVNYEGKFGKHSIAAMAAVEKMQAYMHSKRMLFNNPDPDGYLGTSPSAGAMDTGNSITYKYKQGSLSYLGRVSYNYADKYLFQFLFRSDASTKFAPANYWGFFPGVSVGWVASEEEFMKKLLPSWFEYMKVRFSWGRTGKDNIKAWGWKQLYSLDPSRGYGFGSNGGILQTGIKPGATPNPDAHWDNTDKFNLGFDLRFLNNRLSATVDVYYDINSDILNQNIGGIIGTPIFAGGALTEVNFGRIDAFGSEFSLNWRDKIDQVKYNIGVNFGFNGNRVREWPQSAPSYIQENSVREGASTIFPTYGYKVWRGTSSGDGILRNSDDIENYWNYLSANAEAAGTSPEYLGVKDASQLKPGMLAYQDLGGVLNEDGTQSGPDGRIAKTQDYAKLNKSGKTYGFTTKLGAEWKGISFNMMIATSWGGYRQIDVNKITTSSGDMLWTPDSFWEDMFDERNNTTGKYPNLGLDNRISGSVIAPSDFWSISTFRCYIRNLSIGYTLPKAWLSPLKIQSAKLSLTGNNLW | failed |
| VYTLMTTRSHDQYNTTLYGLDDRYRGVFGQRRVLFMNEQDIQEAGFQADQWVDIESIYSDGLKRIVRSFKIVPYNIPRGSMAAYYPETNPLVALSSHDKYAKIPASKSIPVILHPGQAPEHFNLAAPVDPEHANG | failed |
| MSLHFQILLWLSILFIIAGTILLVTMLKTKKEERKESYLGFTVIFLIFGFAILIYTFIFGIL | failed |
| MEALVRCLRSGQFLLIIDNLESVLQPDRQWGSLFYGDFFQAWIESGGNSKVLVTTRERPELKGFEWLTLKGLQVDEGVALLTALGIKGNLGEFVELVDGHPLLLRLVADLLKEEYPQDPDLSRLADLGLGNLQQLLTDSQVVGVHRRENVGMVLVLDASFHRLSELQKALLLNISVYRGAVDSAAAVAMLPGNSAAEIEKELRNIVKRSLLVEKLNGKRRFEFQPVVLEYVRYKAGDQSEAHQRAIDYYRSVAKQPPWTTKDDVREYLEIFDHFYQLQDYDSAFDNIRVCSKFLGLCGFFVDKVELYGQLISKWKEIGERENWNYGASLTALGNAYRYLGEYQRAIELFQQSLEIFRDIGDRNGVSNSLIGLGNTYNSVGEYQRAIELFQQSLEISRDIGDRNGVGGSLMGLGNAYNSVGEYQRAIELFQQSLEISRDIGDRNGVGNSLIGLGNAYHSLGEYQRAIEFRQQSLEIFRDMGDRNGVSISLNNLGNTYYFLGEYQRAIEFHQQSLEISRDIGDCNGVGRSLNNLGNAYYSLGKYQQAIEFHQQSLEIKRDIGDRNGVGTSLNNLGTAYSSLGKYQRAIELFQQSLEIKRDIGDRNGVGTSLMNLSNAYYRCGKIREAFAVWHQAESIFQELQLPFEAMPYPQWLKSLIKFAQRGWFQFILCFIFGLIAFPFALVWLILLFLWPSISSQFRR | failed |
| MTFEIVFVLLSLLGMMAALIADKMRPGMVLFSVVVLFLCVGILTPKEMLEGFSNKGMITVALLFLVSEGIRQSGTLGQVIKKLLPQGKTTVFKAQLRILPSVAFISAFLNNTPVVVIFAPIIKHWAKSVKLPATKFLIPLSYVTILGGICTLIGTSTNLVVHGMILEAGYEGFTMFELGKVGIFIAIAGIIYLFIFSKRLLPDARPDTAVPDEEVEEGEKLHRVEAVLGARFPGINKKLSDFNFQRHYGAEVKEIKTRNGQRYVDHLEDVVLREGDTLVVMADDTFIPTWGESSVFVLLTNGNDPDTSGKKKRWLALILLVLMIVGATVGELPATKEMFPDIKLDMFFFVCITTIIMAWTNIFPARKYTKYISWDILITIACAFAISKAMVNSGVADCVAGFIIGLSDDYGPHVLLAILFVITNLFTELITNNAAAALAFPLALSISAQLGVSPTPFFVVICMAASASFSTPIGYQTNLIVQGIGNYKFTDFVRIGLPLNIITFLISVILIPLIWNF | not failed |
| MFRFADPNFLYLLILLPFLVALYLYSNYHRRQNIRKYGDPALLKGLMPTISKYRPDIKFWLTFAALTLVILMLARPQFGSKMETVKRSGVEAVIALDISNSMLAEDVTPSRLDKSKKLISRLVDTFNNDKVGLIVFAGDAFTQLPITSDYVSAKMFLETINPSLITTQGTDIGAAIRLAMKSFTPQEGVGRAIIVITDGENHEGGAVEAAQEAAEKGMQVFVLGVGSPDGSPIPAEDGSNNFRRDKDGNVIVTRLNEQMCQEIAKAGNGMYIRVDNTNSAEKVLNNEIAKLSKADVESQVYTEFDEQFQALAWLVLILLVVEMLILERKNPLFKNVRLFK | failed |
| MTTPSRRILILVGHPDPAPERFCRALAEAYAQGAMEGGHEVRRADIGSMDIALLESQAAFQVDDAPQSIRDLRADIVWAEHLVLVFPLWLGGAPAKLKAALEQVCRGGFGFEVGPRGWSSKLAGRSARMVLTMGMPSAIFRLVFGSHGLKAVTQGIFMLAGVKPRRASIIGGVEAIGAGGRSRWLKRMGHLGEAAR | failed |
| MKLIKTIDAVGQVLCHDITQIIPGEFKGRKFKKGHIVKEEDIPVLLSLGKDNLYVWEKSEGMVHENEGALFLKELTAGENLDFSEIKEGKIDFIAACDGLLKIDVDALFDLNCVGEIMMATLHNNFIVNKGLKVAGTRVIPLVIDEKKLEDAKKVVGNRKIVNVVPFKPKKVGIVTTGNEVFYSRIVDKFGPVIEEKVKGFGCEVIGQTICPDDKEIIKSAIKEFISQGAELICCTGGMSVDPDDVTPTAIKETGADLVTYGSPILPGAMFLLAYYGEVPIMGIPGCAMYHKTTVFDIVLSRVLIDEKLDKYDIARYGHGGLCMNCDVCTYPACNFAKILEHHHHHH | failed |
| MPQTSSVFRYPGGKTQLYSFVHHLLKINSITDISLEPFAGGAGIPLKLLIDNRINTVWINDYDKAIYSVWDTILNDPVALISLIESVPFDYHSGHKISPEFSISFWKKQKDIYLNNKNHQHSIELAFSTLFLNRTNTSGIITAGPLGGFKQNRKTQIYARFNKETLINKINLIHSFKSQIKLTRLNTLDMIPKIRNSVDPKNSFIFFDPPYFEQGKELYYSSFNEQGHKELANGILSLKQYHWITTYDTAPQIQEDYTMAKQKYEYSLNYSANNKNRGKTAEFMFASPVTRLSSFEKVDLTPLA | failed |
| MTTIFIEKATILDAEKLTEIMTRTFDEEEKRWLCGQGDVIDYNIQPPGYSSVEMMRYSIEELDCYKVIMDGKIIGGIIVTISGKSYGRIDRIFVEPVYQGKGIGSYVIKLIEEEYPSIRIWDLETSSRQLNNHHFYKKMGYETIFKSEDEYCYVKRIT | failed |
| MIVASRSPLPLAPPMLFPASDDDVPFDDAPRILLFTGKGGTGKTTCAAATAQHAARQGHKTLVLSSDPAHSLADALDQELGPEAREVRDRLFAQEVDLYYSMKKHWGHMRELMLTVFRWQGVDQIAAEELAALPGMNEGSVLLWLEEALREADYDLIVVDSAPTGETLTLLTLPQVTQWWLAKAFPFQKMAVKSLGFGVRKATGIPLDKGYEELEVIFEKLERVQQVLATPSTTSIRLVTNPEKMVIEEARRAFTYLQLYGYGVDSVVVNRVLPEEEVPADSFFEGYVESQREYLEEIEQSFRPLPILQVPHLGEEVFGAERLGRIGDAMYAERNPTDVFYDEPTFTVEEDGDAYVLNLRLAFATEADVDVRQLGDQLVVQVANQRSNVILPNFLNYYHMTNAALEEGWLRVRFTPDGEASSN | failed |
| MALAFDEFGRPFIILREQDQKTRLKGIDAQKANISAGKAVARILRSSLGPKGMEKKCFKDLTEMSPYVSFFLLNLISLRSIPMALALNSGLQPIETLSAVKSQQIKRRTFHSTGLIATM | failed |
| MDHKDYSRQNAERRLLLSKDEERIRDELEMEIERNLEGEFKDGIYNLALKLRRLYEQRREREELFDVSMRKSKRVLEVNINIKMEGDTKIEITEKKKEVDNEKTKKAENSDKRKKFVAVGEDKTGKEKMKNQTRAHELRWKW | failed |
| MASILRWFVRAFALALAAQSVCANPRPEVIDTIAATPAGLVAVTEDGTGLWSLVDGSRPAWQARPRAPNARGDMQLEPVAVSPDGRWLAATRGYKDPVIVVRDAATGRAVREIKAPRSGVDGLRFAGDDVLVALYAGRLAAVWEASSGKARGVFELPAAPRQVAASADGRYLAVGQDKQRVTVYDLEGGKSLGNFELGSIASKSHAVPTHDILFMAFAYDGTVVVHHATGYIQRFDPRRAAPAALLGSQDIPLRGVATSLSPDRRVLLTADRPGALTLYRLDQPAPARSALRSALGEVTASAWEAGSRRFAVADNQGRVELWDARKPAGAALEGKHAGAIEQLAFASAGRFLVSSGRDGSIRVRETATGQEAVRLVGLGETGWVSMMPAGYFHSSGLPAEAAINVRIGSDVYGIDNFRERYYRPDILSAALQGRSVRPQRTLADTRPPPQVRADPVPASLAADTYTLVLQLTDQGGGIGDVRVLRNDVAVANHAADAQAAAGSQRRSIPVKLAAGRNEIKVIAFNAENSLSSKPLRLTLDVRATQPEKPVLHAMIVGINEFGEASLNLQYAVNDANAIARELRERTRGLYRDVRIELLTTPQQTSRASLIESLRRYQQLDAGDVFMFYVSTHGAVMGDKPVDQEYFLIPSNAKSPVFAHDAISQHELKRLFSSIPAGKKLLLFDTCFAGALGEALYQPAVERGVAENGAVNVLATAIGSTTLAASAPLEMSYEGYQEHGTFTWVVLQAFRGKAGGGKGNVVLTADLARYVAREVPALARRLQREQNPAVYATGQPFPVVAGR | failed |
| MWEIYDAMINGIPEDFLVDELVCGTTHSVIRSGNGVGLGPNRPFETRMPMLTQNLLGLPLRVAAGCVKSWNYVEASIGLAAINAYYNNPQVAREHGVIFSDAKRVEDRMNDPFIMSQNEVKGKKVGVVGHFPHLESLLEPICDLSILEWSPEEGDYPLPASEFILPECDYVYITCASVVDKTLPRLLELSRNARRITLVGPGTPLAPVLFEHGLQELSGFMVKDNARAFRIVAGAEKVKIYSAGQKVTIKK | not failed |
| MDFSSNVAAQLNAGTILPEGIVIVTLLLVLIVDLIGGRKVALALPYLAIAGLLVSVGLLVTSWSMADPIGFIGAFNGDNLSIIFRAIIALSTVVTILMSVRYVQQTGTSLAEFIAILLTATLGGMFLSAANELVMVFISLEMLSISSYLMTGYMKRDPRSNEAALKYLLIGASSSAIFLYGLSLLYGLSGGETQLVLIAEKLVNADTVGQSLGLAIALVFVIAGIAFKISAVPFHQWTPDVYEGSPTPVVAFLSVGSKAAGFAVAIRLLVTAFGGITDEWHVIFTALAVLSMVLGNVVALAQTSMKRMLAYSSIGQAGFVMIGLVAGSEDGYASMVFYMLIYLFMNLGAFSCIILFTLRTGSDQISDYAGLYHKDPLLTLGLSICLLSLGGIPPLAGFFGKIYIFWAGWQSGLYGLVLLGLVTSVVSIYYYIRVVKMMVVKEPQEMSEVIKNYPAIKWNLPGMRPLQVGIVATLVATSLAGILANPLFNLATDSVVSTKMLQTALQQTGETPAIAISHDLP | failed |
| EYSENNAPLFIRAVNSVASTTGAPPWANLVSILEEKNGADPELLVYTVTLINKTLAALPDQDSFYDVTDALEQQGMEALVQRHLGTAGTDVDLRTQLVLYENALKLEDGDI | failed |
